In assay [1] the test system is LDL-RD mice. Nature of the assay: Aortic sinus lesion area after oral administration, Western diet. Format: in vivo. The following applies: for Aortic sinus lesion (μm^2): End, mean ± S.E. Here is the method:
Oral Tolerance: For comparison, oral tolerance to plaque-associated molecules was induced by feeding […] of antigen every other day (for a detailed account of induction of oral tolerance, see U.S. patent application Ser. No. 09/806,400 to Shoenfeld et al filed Sep. 30, 1999), in a similar regimen to the nasal tolerance. LDL-RD mice were fed by a nasogastric tube, five doses (every other day) of human or bovine β2GPI in PBS in two different concentrations (500 and 50 μg/dose).
Oral tolerance to β2GPI-derived peptides, alone or in combination was induced by feeding 100 μg of the peptides (prepared in PBS, 0.2 ml), as detailed hereinabove, every other day for a total of 5 doses of 100 μg. One day following the last feeding, all mice were switched from chow-diet to an atherogenic “Western” diet and sacrificed five weeks later.
Assessment of Atherosclerosis: Quantification of atherosclerotic fatty streak lesions was done by calculating the lesion size in the aortic sinus as previously described (16) and by calculating the lesion size in the aorta. Briefly, after perfusion with saline Tris EDTA, the heart and the aorta were removed from the animals and the peripheral fat cleaned carefully. The upper section of the heart was embedded in OCT medium (10.24% w/w polyvinyl alcohol; 4.26% w/w polyethylene glycol; 85.50% w/w nonreactive ingredients) and frozen. Every other section (10 μm thick) throughout the aortic sinus (400 μm) was taken for analysis. The distal portion of the aortic sinus was recognized by the three valve cusps that are the junctions of the aorta to the heart. […] Lesion areas per section were scored on a grid (17) by an observer counting unidentified, numbered specimens. The aorta was dissected from the heart and surrounding adventitious tissue was removed. Fixation of the aorta and Sudan staining of the vessels were performed as previously described (21).
LDL-receptor deficient (LDL-RD; LDLR −/−) mice created on a C57BL/6 background develop accelerated atherosclerosis when fed a high cholesterol diet, but not when fed a regular chow diet. In order to determine whether mucosal administration of the plaque antigen β2GPI could suppress atherogenic processes, LDL-RD mice were fed low, oral tolerance inducing doses of human and bovine β2GPI, and the assessed for alterations in response to diet.

For assay [2], the system named is lymph node cells. The assay is described as follows: Lymph node cell proliferation (stimulation index) to oxLDL after oral administration. Format: in vivo, mice. As to conditions: oral, 3 doses of 100 μg; LDL-RD mice immunized with OxLDL; OxLDL challenge; mean ± S.E. Here is the method:
Proliferation was measured by the incorporation of [^3H] thymidine into DNA during the final 12 h of incubation. The results were computed as stimulation index: the ratio of the mean cpm of the antigen to the mean background cpm obtained in the absence of the antigen.
[…] Three days after the final administration of peptides, the mice were immunized with OxLDL in incomplete Freund's adjuvant, as described in the Examples above, and lymph node cells assessed for antigen (OxLDL) stimulation of proliferation 10 days later. Proliferation was assessed by incorporation of thymidine, expressed as the Stimulation Index, as described.

The subject of assay [3] is ApoE-KO mice. Nature of the assay: Aortic sinus lesion area after nasal administration in ApoE-KO mice. Format: in vivo. Here is the method: Nasal Tolerance: Nasal tolerance was induced by intranasal administration of oxidized LDL, β2GPI, β2GPI-derived peptides or HSP65, in a total volume of 10 μl PBS. Intranasal administration was performed on mildly sedated mice (12-16 weeks old), each mouse receiving […] of antigen per dose, in the indicated concentrations, every other day. Atherogenesis was induced by 5 weeks of a Western diet initiated on the day following the last intranasal administration, or assessed (in Apo E KO mice) after 8 weeks on a chow diet. Controls received equal amounts of BSA and/or PBS, as indicated, in an identical regimen. Plasma was obtained for assessment of cholesterol and triglyceride levels from all mice, and the mice were sacrificed for evaluation of atherosclerosis, as described hereinbelow, after 5 weeks Western diet, or (in Apo E KO mice) after 8 weeks on a chow diet.
Assessment of Atherosclerosis: Quantification of atherosclerotic fatty streak lesions was done by calculating the lesion size in the aortic sinus as previously described (16) and by calculating the lesion size in the aorta. Briefly, after perfusion with saline Tris EDTA, the heart and the aorta were removed from the animals and the peripheral fat cleaned carefully. […] Lesion areas per section were scored on a grid (17) by an observer counting unidentified, numbered specimens. […]

B1: Human β2 GPI: human beta2-glycoprotein I (SEQ ID NO: 10) purified from serum (protein)
chain: MISPVLILFSSFLCHVAIAGRTCPKPDDLPFSTVVPLKTFYEPGEEITYSCKPGYVSRGGMRKFICPLTGLWPINTLKCTPRVCPFAGILENGAVRYTTFEYPNTISFSCNTGFYLNGADSAKCTEEGKWSPELPVCAPIICPPPSIPTFATLRVYKPSAGNNSLYRDTAVFECLPQHAMFGNDTITCTTHGNWTKLPECREVKCPFPSRPDNGFVNYPAKPTLYYKDKATFGCHDGYSLDGPEEIECTKLGNWSAMPSCKASCKLPVKKATVVYQGERVKIQEKFKNGMLHGDKVSFFCKNKEKKCSYTEDAQCIDGTIEVPKCFKEHSSLAFWKTDASDVKPC
For the molecule B1, the “Aortic sinus lesion (μm^2)” value in assay [1] (oral 50 μg) worked out at 26563 ± 2370 μm^2; in assay [1] (oral 100 μg), 30250 ± 4464 μm^2; in assay [1] (oral 500 μg), 27031 ± 3387 μm^2; in assay [3] (End, nasal 10 μg/mouse, mean ± S.E), 117449 ± 7524 μm^2. For the same molecule, the “reduction of atherosclerosis as compared with BSA-fed controls” value is listed as 45% in assay [1] (oral 50 μg/dose) and 44% in assay [1] (oral 500 μg/dose). The “reduction of atherosclerosis (aortic sinus lesion size) as compared with BSA- and PBS-fed controls” value in assay [1] (oral 100 μg/dose, 5 doses, Western diet 5 weeks) was 44%. In assay [2], this molecule returned a Stimulation index of 38 ± 12. For the same molecule, in assay [3] (nasal 10 μg, 3 doses, then 8 weeks of chow diet), the “reduction of progression of atherosclerotic lesions compared to PBS controls” value amounted to 19%.

The values above are taken from patent US20090068207A1, “Compositions Containing Beta 2-Glycoprotein I-Derived Peptides for the Prevention and/or Treatment of Vascular Disease” (Vascular Biogenics Ltd., priority 2005, published 2009).
